Results taken from US12371675B2, “Process and microorganism for synthesis of adipic acid from carboxylic acids” (THE GOVERNING COUNCIL OF THE UNIVERSITY OF TORONTO, priority 2015, dated 2025).

Experiments:
[1] = Whole-cell biotransformation with E. coli strains over-expressing OYEs; format: cell-based; settings: E. coli over-expressing OYE
[2] = OYE hydrogenation activity screen, NADPH oxidation at 340 nm; format: biochemical; settings: 1 mM substrate, 0.25 mM NADPH, 2.5 μg protein; cut-off 0.05 U/mg protein; ND = not detected
Procedure: 25 putative OYE genes (Table 1) were cloned based on the Pfam domain of the FMN oxidoreductase family PF00724. Purified OYEs were screened for hydrogenation activity against acrolein, 2-cyclohexn-1-one, cis,cis-muconic acid, trans,trans-muconic acid, and 2-hexendioic acid. Substrate specificity was measured spectrophotometrically in 96-well plates by following incubation for 20 min at room temperature in the anaerobic chamber. Buffers and reagents were also degassed and sparged with Ar. Reaction mixtures contained potassium phosphate (50 mM and pH 7.0), NaCl (10 mM), NADPH (0.25 mM), various substrates (1 mM) and protein (2.5 μg) in a final volume of 200 μL. Enzyme reactions were monitored by following the decrease in absorbance at 340 nm (ε340 nm=6,200/M·cm) as a measure of the conversion of the cofactor NADPH to NADP+.

[3] = In vitro biotransformation by CARs coupled with aldehyde reductase PP_3370; format: biochemical; settings: Table 12 title: 10 mM adipic acid (12 h) in vitro, CARs coupled with PP3370
[4] = CAR reductase activity, NADPH oxidation at 340 nm; format: biochemical; settings: ND = no activity was detected
Procedure: Reductase activity was measured spectrophotometrically by following the oxidation of NADPH depletion at 340 nm.
It has been shown that the N. iowensis CAR has a broad substrate range, though its maximal activity was usually observed with aromatic substrates such as benzoic and cinnamic acids. CARs gene sequences homologues to the N. iowensis CAR (Uniprot number: Q6RKB1), were selected from GenBank database. Based on presence of adenylation (AMP-binding PF00501) and reduction (NAD-binding PF07993) domains accompanied with phosphopantetheinyl binding motif (PF00530) 13 CAR genes (mostly from Mycobacterium) were cloned and expressed in E. coli. (Table 4). As CAR activation enzymes, phosphopantetheinyl transferases (PPTs) from E. coli (P19925) and Bacillus subtilis (P39135), were used which were co-expressed with the selected CAR genes from a separate plasmid. Using 1-liter E. coli cultures with overnight induction by IPTG, 12 soluble CAR proteins were purified using affinity chromatography on a Ni-NTA resin.

[5] = In vitro biotransformation by CARs coupled with aldehyde reductase PP_3370; format: biochemical; settings: Table 12 title: 10 mM 4-hydroxybutyric acid (12 h) in vitro, CARs coupled with PP3370
[6] = In vivo whole cell biotransformation by E. coli expressing CARs; format: cell-based; settings: 24 h
Procedure: E. coli cells expressing recombinant CARs with BSU03570 phosphopantetheinyl transferase were grown on LB media with […], supplemented with 2% glycerol aerobically on 37° C., until the culture optical density (OD 600 nm) reached 0.6-0.8. At this point protein expression was induced with 0.4 mM IPTG and substrate (adipic acid or 4-hydroxybutyric acid) for final 10 mM concentration was added. Samples were taken at 6 h, 24 h and 48 h, centrifuged, supernatant was filtered through 10 kDa centrifugal filters. Products were analyzed with HPLC or LC-MS. Negative control experiments were performed using E. coli cells harboring empty plasmids. All results of in vivo experiments are means from at least two independent determinations.

[7] = Whole-cell anaerobic biotransformation by E. coli expressing EREDs; format: cell-based; settings: 20 mM 2-hexenedioic acid

B1: BSU2381: OYE protein from Bacillus subtilis subsp. subtilis str. 168 (protein)
chain: MARKLFTPITIKDMTLKNRIVMSPMCMYSSHEKDGKLTPFHMAHYISRAIGQVGLIIVEASAVNPQGRITDQDLGIWSDEHIEGFAKLTEQVKEQGSKIGIQLAHAGRKAELEGDIFAPSAIAFDEQSATPVEMSAEKVKETVQEFKQAAARAKEAGFDVIEIHAAHGYLIHEFLSPLSNHRTDEYGGSPENRYRFLREIIDEVKQVWDGPLFVRVSASDYTDKGLDIADHIGFAKWMKEQGVDLIDCSSGALVHADINVFPGYQVSFAEKIREQADMATGAVGMITDGSMAEEILQNGRADLIFIGRELLRDPFFARTAAKQLNTEIPAPVQYERGW
hydrogenation of 2-hexenedioic acid into adipic acid [1]: no hydrogenation | Activity [U/mg protein] 2-cyclohexen-1-one [2]: 0.21 U/mg protein

B2: EC5625: OYE protein from Escherichia coli K12 (protein)
chain: MSSEKLYSPLKVGAITAANRIFMAPLTRLRSIEPGDIPTPLMAEYYRQRASAGLIISEATQISAQAKGYAGAPGIHSPEQIAAWKKITAGVHAENGHMAVQLWHTGRISHASLQPGGQAPVAPSALSAGTRTSLRDENGQAIRVETSMPRALELEEIPGIVNDFRQAIANAREAGFDLVELHSAHGYLLHQFLSPSSNHRTDQYGGSVENRARLVLEVVDAGIEEWGADRIGIRVSPIGTFQNTDNGPNEEADALYLIEQLGKRGIAYLHMSEPDWAGGEPYTDAFREKVRARFHGPIIGAGAYTVEKAETLIGKGLIDAVAFGRDWIANPDLVARLQRKAELNPQRAESFYGGGAEGYTDYPTL
hydrogenation of 2-hexenedioic acid into adipic acid [1]: no hydrogenation | Activity [U/mg protein] 2-cyclohexen-1-one [2]: 0.18 U/mg protein

B3: MSMEI_5586: carboxylate reductase (CAR) from M. smegmatis ATCC 700084 (protein)
chain: MHQLTVTGMNICEVQRLFPRMTSDVHDATDGVTETALDDEQSTRRIAELYATDPEFAAAAPLPAVVDAAHKPGLRLAEILQTLFTGYGDRPALGYRARELATDEGGRTVTRLLPRFDTLTYAQVWSRVQAVAAALRHNFAQPIYPGDAVATIGFASPDYLTLDLVCAYLGLVSVPLQHNAPVSRLAPILAEVEPRILTVSAEYLDLAVESVRDVNSVSQLVVFDHHPEVDDHRDALARAREQLAGKGIAVTTLDAIADEGAGLPAEPIYTADHDQRLAMILYTSGSTGAPKGAMYTEAMVARLWTMSFITGDPTPVINVNFMPLNHLGGRIPISTAVQNGGTSYFVPESDMSTLFEDLALVRPTELGLVPRVADMLYQHHLATVDRLVTQGADELTAEKQAGAELREQVLGGRVITGFVSTAPLAAEMRAFLDITLGAHIVDGYGLTETGAVTRDGVIVRPPVIDYKLIDVPELGYFSTDKPYPRGELLVRSQTLTPGYYKRPEVTASVFDRDGYYHTGDVMAETAPDHLVYVDRRNNVLKLAQGEFVAVANLEAVFSGAALVRQIFVYGNSERSFLLAVVVPTPEALEQYDPAALKAALADSLQRTARDAELQSYEVPADFIVETEPFSAANGLLSGVGKLLRPNLKDRYGQRLEQMYADIAATQANQLRELRRAAATQPVIDTLTQAAATILGTGSEVASDAHFTDLGGDSLSALTLSNLLSDFFGFEVPVGTIVNPATNLAQLAQHIEAQRTAGDRRPSFTTVHGADATEIRASELTLDKFIDAETLRAAPGLPKVTTEPRTVLLSGANGWLGRFLTLQWLERLAPVGGTLITIVRGRDDAAARARLTQAYDTDPELSRRFAELADRHLRVVAGDIGDPNLGLTPEIWHRLAAEVDLVVHPAALVNHVLPYRQLFGPNVVGTAEVIKLALTERIKPVTYLSTVSVAMGIPDFEEDGDIRTVSPVRPLDGGYANGYGNSKWAGEVLLREAHDLCGLPVATFRSDMILAHPRYRGQVNVPDMFTRLLLSLLITGVAPRSFYIGDGERPRAHYPGLTVDFVAEAVTTLGAQQREGYVSYDVMNPHDDGISLDVFVDWLIRAGHPIDRVDDYDDWVRRFETALTALPEKRRAQTVLPLLHAFRAPQAPLRGAPEPTEVFHAAVRTAKVGPGDIPHLDEALIDKYIRDLREFGLI
In vitro conversion efficiency % to: 1,6-hexanediol [3]: 10.2 ± 3.4% | In vitro conversion efficiency % to: 6-hydroxyhexanoic acid [3]: 30.3 ± 0.4% | Activity [U/mg protein] 4-hydroxybutyric acid, 5 mM [4]: 0.058 ± 0.033 U/mg protein | Activity [U/mg protein] adipic acid, 5 mM [4]: 0.017 ± 0.005 U/mg protein | In vivo conversion efficiency (%) to: 1,4-butanediol [5]: 78.4 ± 6.2% | In vivo conversion efficiency (%) to: 1,4-butanediol ([6]; 10 mM 4-hydroxybutyric acid): 78.4 ± 6.2% | In vivo conversion efficiency (%) to: 1,6-hexanediol ([6]; 10 mM adipic acid): 10.2 ± 3.4% | In vivo conversion efficiency (%) to: 6-hydroxyhexanoic acid ([6]; 10 mM adipic acid): 30.3 ± 0.4%

B4: EREDCT: 2-enoate reductase (ERED) from Clostridium tyrobutyricum (protein)
chain: MKNKSLFEPIKIGKVEVKNKISMAPMGAFGLVDNEGCYNQRAVDYYVERAKGGTGLIITSITKVENEIDKVVPGVIPIISINPGRFIMTSSEMTERVHSYGSKIFLQLTMGFGRSGAPGTLLTSQPVSASSVPNYWDPTVTCRELTTSEVEWIVAKFIQGAAIAQKAGFDGVEIHAVHEGYLLDQFTLSIFNRRTDKYGGDLRGRLQLPIEIVQGIKAQVGSDFPVGLRYSVKSCIKDWRQGGLPDEDYVEKGRDLKEGLESAKILEAAGYDELNTDVGTYDAWYWSHPPLYQKDGLYLPYTKELKKVVKIPVIVAGKLGVPQEAEKALDEGGADMIGLARPLLSDAYWPKKVLSGHPERIRPCIGCHVGCLGRGFEGKPLSCAVNPAAGRERYYEIRPAAIPKKVLIAGGGVAGMEAARMAVLRGHKVTLYESTDQLGGEIVPGSVPDFKIDDRRLLDWYRNEMKELKINVIFNTEVTDKLVGKEQPDVVIVATGANDVKIKLPGIEKDKVSTAVDILNGAKKSGKNVLIVGGGLVGCETALYLAKAGKKVAIVEAKDKILDAGKPIPHMNKIMLEDLIKKYNIKVITGNSLLEVTGDGAVLIDNKFKQQEVYADTIVISIGFKSNRKLYNKLHGKVTDLYLIGDAYQTANIMDAIWSGNEIGLNC
production of adipic acid [7]: inactivity

B5: YST4373: OYE protein from Saccharomyces cerevisiae (protein)
chain: MPFVKDFKPQALGDTNLFKPIKIGNNELLHRAVIPPLTRMRAQHPGNIPNRDWAVEYYAQRAQRPGTLIITEGTFPSPQSGGYDNAPGIWSEEQIKEWTKIFKAIHENKSFAWVQLWVLGWAAFPDTLARDGLRYDSASDNVYMNAEQEEKAKKANNPQHSITKDEIKQYVKEYVQAAKNSIAAGADGVEIHSANGYLLNQFLDPHSNNRTDEYGGSIENRARFTLEVVDAVVDAIGPEKVGLRLSPYGVFNSMSGGAETGIVAQYAYVLGELERRAKAGKRLAFVHLVEPRVTNPFLTEGEGEYNGGSNKFAYSIWKGPIIRAGNFALHPEVVREEVKDPRTLIGYGRFFISNPDLVDRLEKGLPLNKYDRDTFYKMSAEGYIDYPTYEEALKLGWDKN
hydrogenation of 2-hexenedioic acid into adipic acid [1]: no hydrogenation | Activity [U/mg protein] 2-cyclohexen-1-one [2]: 0.23 U/mg protein | Activity [U/mg protein] acrolein [2]: 0.17 U/mg protein
